The values below come from doi:10.1101/2020.06.19.161133, “Structure of the yeast Nup84-Nup133 complex details flexibility and reveals universal conservation of the membrane anchoring ALPS motif” (bioRxiv, 2020).

Holding throughout (settings): both partners purified
In assay [1] the target is T1, Nup84 (full-length, S. cerevisiae) (S. cerevisiae, UniProt P52891).
T1 construct: Nup84, S. cerevisiae, full length; The tag is 3C-cleavable; also called scNup84
The experiment in a line: crystal structure; Nup84-Nup133CTD-VHH-SAN8, 6.4 Å, SAD with a polyoxotungstate derivative; crystals at 18 °C, PEG 8,000, ethylene glycol, imidazole/MES pH 6.5.

In assay [2] the target is T2, Nup84-Nup133CTD heterodimeric complex (Saccharomyces cerevisiae (strain ATCC …, UniProt P52891;P36161)).
T2 construct: Nup84, S. cerevisiae, full length; source: E. coli LOBSTR-RIL(DE3), co-expressed from a bicistronic vector, purified (Ni Sepharose, SP Sepharose, Superdex 200)
Described as above.

Assay [3] concerns the target T3, Nup133 N-terminal domain (Nup133NTD, residues 55-481) (S. cerevisiae, UniProt P36161).
T3 construct: Nup133, S. cerevisiae, N-terminal beta-propeller, residues 55-481; The tag is 3C-cleavable; also called scNup133NTD; WT-Nup133NTD; source: E. coli LOBSTR-RIL(DE3), purified (Ni Sepharose, Superdex 75)
Put plainly: crystal structure; Nup133NTD-VHH-SAN4, 2.1 Å, molecular replacement; crystals at 18 °C, PEG 3,350, ammonium sulfate, Bis-Tris/HCl pH 5.5.

The target of assay [4] is T3, Nup133 N-terminal domain (Nup133NTD, …). Put plainly: crystal structure; Nup133NTD-VHH-SAN5, 2.8 Å, molecular replacement; six copies in the asymmetric unit; crystals at 18 °C, PEG MME 2,000, potassium chloride, Tris/HCl pH 8.
The target in assay [5] is T1, Nup84 (full-length, S. cerevisiae). The experiment in a line: crystal structure; Nup84-Nup133CTD with VHH-SAN8 and VHH-SAN9, 7.4 Å; same crystal form and conditions as the singly bound complex.
The target in assay [6] is T2, Nup84-Nup133CTD heterodimeric complex. Described as above.

T3 sequence (P36161 55-481): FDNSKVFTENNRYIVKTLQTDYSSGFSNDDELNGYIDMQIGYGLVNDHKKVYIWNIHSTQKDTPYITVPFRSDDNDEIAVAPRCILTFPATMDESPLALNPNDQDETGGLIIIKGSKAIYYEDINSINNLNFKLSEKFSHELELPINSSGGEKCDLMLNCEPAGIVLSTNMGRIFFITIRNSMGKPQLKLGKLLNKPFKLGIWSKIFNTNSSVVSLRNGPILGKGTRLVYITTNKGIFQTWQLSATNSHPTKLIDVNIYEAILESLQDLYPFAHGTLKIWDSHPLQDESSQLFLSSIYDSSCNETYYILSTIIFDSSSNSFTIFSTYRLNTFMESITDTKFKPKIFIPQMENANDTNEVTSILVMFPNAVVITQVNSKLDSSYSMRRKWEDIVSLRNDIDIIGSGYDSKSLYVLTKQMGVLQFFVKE
T2 sequence (P52891 whole entry, chain 1 of 2): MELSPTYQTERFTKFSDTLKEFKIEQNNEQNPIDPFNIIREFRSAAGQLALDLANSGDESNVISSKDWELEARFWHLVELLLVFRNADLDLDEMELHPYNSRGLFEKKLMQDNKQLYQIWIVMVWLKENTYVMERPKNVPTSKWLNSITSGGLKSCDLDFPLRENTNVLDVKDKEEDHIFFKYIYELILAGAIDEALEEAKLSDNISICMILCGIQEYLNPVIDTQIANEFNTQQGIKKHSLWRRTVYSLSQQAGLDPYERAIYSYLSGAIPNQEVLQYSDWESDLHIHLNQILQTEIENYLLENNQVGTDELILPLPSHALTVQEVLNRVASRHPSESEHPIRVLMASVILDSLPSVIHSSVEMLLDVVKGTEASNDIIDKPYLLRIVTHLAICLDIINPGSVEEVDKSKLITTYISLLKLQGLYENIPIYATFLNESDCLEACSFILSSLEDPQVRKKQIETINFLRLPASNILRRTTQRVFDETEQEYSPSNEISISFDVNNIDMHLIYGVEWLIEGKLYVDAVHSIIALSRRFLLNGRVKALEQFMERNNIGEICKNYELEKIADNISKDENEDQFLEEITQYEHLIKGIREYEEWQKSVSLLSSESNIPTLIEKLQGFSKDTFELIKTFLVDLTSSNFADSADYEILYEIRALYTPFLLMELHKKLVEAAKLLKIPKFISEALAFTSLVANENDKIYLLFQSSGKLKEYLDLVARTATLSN
T2 sequence (P36161 521-1157, chain 2 of 2): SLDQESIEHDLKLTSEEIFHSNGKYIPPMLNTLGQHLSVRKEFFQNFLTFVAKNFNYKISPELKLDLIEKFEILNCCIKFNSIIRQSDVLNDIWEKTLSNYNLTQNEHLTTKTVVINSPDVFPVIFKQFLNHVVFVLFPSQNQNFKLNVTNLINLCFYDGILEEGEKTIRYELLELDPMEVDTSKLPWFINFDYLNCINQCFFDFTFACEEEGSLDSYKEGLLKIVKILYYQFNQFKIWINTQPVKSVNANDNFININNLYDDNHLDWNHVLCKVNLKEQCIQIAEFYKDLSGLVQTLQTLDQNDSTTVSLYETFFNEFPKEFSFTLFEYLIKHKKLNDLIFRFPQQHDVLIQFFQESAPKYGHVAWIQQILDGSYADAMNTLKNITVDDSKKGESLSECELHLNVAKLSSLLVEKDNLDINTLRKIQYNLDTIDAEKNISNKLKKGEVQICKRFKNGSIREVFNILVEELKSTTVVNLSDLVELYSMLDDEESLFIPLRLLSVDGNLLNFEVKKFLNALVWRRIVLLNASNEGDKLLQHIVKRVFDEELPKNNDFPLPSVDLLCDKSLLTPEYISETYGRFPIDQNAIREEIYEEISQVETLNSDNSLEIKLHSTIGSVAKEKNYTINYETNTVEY
T1 sequence (P52891 whole entry): as the sequence (P52891 whole entry, chain 1 of 2) above

B1: VHH-SAN8 (VHH)
VHH: QLQLVETGGGLVQAGGSLRLSCVASGRTFTSYAMGWFRQAPGKEREFVAAISRLASGTDYADSVKGRFTISRNNDKNTVYLQMNNLIPEDTAVYYCAALQALRFSLPIAMATMKNGRADSWGQGTQVTVSS
notes: structure deposited as PDB 6X02 and 6X03 (the model is a generic nanobody without CDRs, PDB 1BZQ, placed as a rigid body); Selected by phage display from an alpaca immunised with the full-length Y complex, panned against Nup84; also called VHH8; nanobody VHH-SAN8; source: E. coli, purified (Ni Sepharose, tag cut with SEN-p protease, Superdex 75); not shown: 14xHis bdSUMO, N-terminal, cleaved
Consider B1, for which the binding result in assay [1] and in assay [2] was “binds” throughout.

B2: VHH-SAN4 (VHH)
VHH: QLQLVESGGGSVQAGGSLTLSCTASESISKRIHGIGWFRQRRGEQREEIAYITTGGRPNLGDSVKDRFTISRDKSNGTVYLQMNSLKPEDTAVYYCHGRGRWWGTEGRLDYWGQGTQVTVSS
notes: structure deposited as PDB 6X05 (2.1 Å, nanobody chain); Selected by phage display from an alpaca immunised with the full-length Y complex, panned against Nup133NTD; also called nanobody VHH-SAN4; source: E. coli, purified (Ni Sepharose, tag cut with SEN-p protease, Superdex 75); not shown: 14xHis bdSUMO, N-terminal, cleaved
Take B2: the binding result in assay [3] is listed as “binds”.

B3: VHH-SAN5 (VHH)
VHH: QVQLVESGGGLVQAGGSLRLSCAASGSIGSLDAMAWYRRAPGKQRERVASISRYGTYYVDSVKGRFTISRDNAKNTVYLQMNSLKPEDTGVYYCKGVMEVGGVIDEYWGQGTQVTVSS
notes: structure deposited as PDB 6X04 (2.8 Å, nanobody chains); Selected by phage display from an alpaca immunised with the full-length Y complex, panned against Nup133NTD; also called nanobody VHH-SAN5; source: E. coli, purified (Ni Sepharose, tag cut with SEN-p protease, Superdex 75); not shown: 14xHis bdSUMO, N-terminal, cleaved
For the molecule B3, the binding result in assay [4] is “binds”.

B4: VHH-SAN9 (VHH)
VHH: QVQLVESGGGSVQAGGSLRLSCAVSGGTLSTLAMGWFRQAPGQEREFVARIGWTNGDTGYADSVKGRFTISRDNVKNTVYLQMNNLKPEDTALYYCATRRPYGSTLYPPNTESAHDNWGQGTQVTVSS
notes: structure deposited as PDB 6X03 (the model is a nanobody without CDRs placed as a rigid body); Selected by phage display from an alpaca immunised with the full-length Y complex; also called VHH9; nanobody VHH-SAN9; source: E. coli, purified (Ni Sepharose, tag cut with SEN-p protease, Superdex 75); not shown: 14xHis bdSUMO, N-terminal, cleaved
B4: the binding result in assay [5] and in assay [6] was “binds” throughout.
